Like-named read-outs stand apart in the source and are kept apart here. Values belong to the binder of their own block, whether it stands above or below them.
B3: MIRO1_(1-591), full-length cytosolic human MIRO1 (domain or fragment, UniProt Q8IXI2 1-591, looked up)
chain: MKKDVRILLVGEPRVGKTSLIMSLVSEEFPEEVPPRAEEITIPADVTPERVPTHIVDYSEAEQSDEQLHQEISQANVICIVYAVNNKHSIDKVTSRWIPLINERTDKDSRLPLILVGNKSDLVEYSSMETILPIMNQYTEIETCVECSAKNLKNISELFYYAQKAVLHPTGPLYCPEEKEMKPACIKALTRIFKISDQDNDGTLNDAELNFFQRICFNTPLAPQALEDVKNVVRKHISDGVADSGLTLKGFLFLHTLFIQRGRHETTWTVLRRFGYDDDLDLTPEYLFPLLKIPPDCTTELNHHAYLFLQSTFDKHDLDRDCALSPDELKDLFKVFPYIPWGPDVNNTVCTNERGWITYQGFLSQWTLTTYLDVQRCLEYLGYLGYSILTEQESQASAVTVTRDKKIDLQKKQTQRNVFRCNVIGVKNCGKSGVLQALLGRNLMRQKKIREDHKSYYAINTVYVYGQEKYLLLHDISESEFLTEAEIICDVVCLVYDVSNPKSFEYCARIFKQHFMDSRIPCLIVAAKSDLHEVKQEYSISPTDFCRKHKMPPPQAFTCNTADAPSKDIFVKLTTMAMYPHVTQADLKSST

Legend:
[1] = molecular target: the molecule itself; test: cryo-EM structure
[2] = molecular target: MIRO1_(177-591) (human, UniProt Q8IXI2 177-591); test: ITC
[3] = molecular target: the molecule itself; test: mass photometry
[4] = molecular target: B3; test: pull-down
[5] = molecular target: B3; test: pull-down; remark: listed apart in the source

B1: TRAK1_(569-623) (domain or fragment, human, UniProt Q9UPV9 569-623, looked up)
chain: YLPEKLQIVKPLEGSATLHHWQQLAQPHLGGILDPRPGVVTKGFRTLDVDLDEVY
- binding result [1]: binds

B2: MBP-TRAK1_(416-431) (peptide, UniProt Q9UPV9 416-431, looked up)
chain: RSLTPSPMNIPGSNQS
- Kd [2]: 10.9 to 15.9 µM
- stoichiometry N [2]: 1

Binder: B3
- stoichiometry N [3]: 2

B4: MBP-TRAK1_(416-446,561-623) (domain or fragment, human, UniProt Q9UPV9 416-446, looked up)
chain: RSLTPSPMNIPGSNQSSAMNSLLSSCVSTPRGMSFSSRSYLPEKLQIVKPLEGSATLHHWQQLAQPHLGGILDPRPGVVTKGFRTLDVDLDEVY
- binding result [4]: binds

Results, then the binder that gave them:

- binding result [5]: binds
B5: MBP-TRAK1_(416-446,561-623) L597D (domain or fragment, human, UniProt Q9UPV9 416-446, looked up)
chain: RSLTPSPMNIPGSNQSSAMNSLLSSCVSTPRGMSFSSRSYLPEKLQIVKPLEGSATLHHWQQLAQPHDGGILDPRPGVVTKGFRTLDVDLDEVY

- binding result [5]: binds
B6: MBP-TRAK1_(416-446,561-623) W589D (domain or fragment, human, UniProt Q9UPV9 416-446, looked up)
chain: RSLTPSPMNIPGSNQSSAMNSLLSSCVSTPRGMSFSSRSYLPEKLQIVKPLEGSATLHHDQQLAQPHLGGILDPRPGVVTKGFRTLDVDLDEVY

Reference: publication PMC12227652 (Nature Communications, 2025)
